# Assays:
# [1] = system: MPC-11 mouse myeloma cells; assay: MPC-11 myeloma tumor growth in syngeneic Balb/c mice; format: in vivo
# Description: MPC-11 myeloma. Mouse MPC-11 myeloma cells are detached with trypsin/EDTA, washed with PBS, brought to a concentration of 5×10^5 cells/0.2 ml and inoculated subcutaneously at the right flank of 6-8-weeks-old Balb/c mice. Three days after cell inoculation, mice are randomly assigned to 2 cohorts (6 mice each) receiving (a) vehicle (PBS); and (b) A54 mAb (500 μg/mouse, 3 times/week. Xenograft size is determined on day 7, 10 and 14 by externally measuring tumors in 2 dimensions using a caliper. At the end of the experiment, mice are sacrificed and tumor xenografts are removed and weighed.
# Briefly, Balb/c mice were inoculated (s.c.) with MPC-11 mouse myeloma cells (0.5×10^6). Treatment with mAb A54 (250 or 500 μg/mouse every other day) was initiated two days after cell inoculation. Control cells were administrated with PBS. Xenograft size was determined twice a week by externally measuring the tumors in two dimensions using a caliper, and tumor volume was calculated (FIG. 6A). At the end of the experiment (Day 14) xenografts were removed, weighed (FIG. 6B), fixed in formalin and photographed (FIG. 6C). […] The above results imply that the development of primary tumors can be restrained by the anti-heparanase mAb A54.
# LPS-induced sepsis = LPS-induced sepsis survival; format: in vivo, C57BL/6 mice; settings: 500 μg/mouse 30 min before LPS (15 mg/kg, i.p.); monitored 8 days
# Description: In subsequent studies, the effect of mAb A54 on LPS-induced sepsis, was investigated. C57BL/6 mice (n=8) were treated with A54 mAb (500 μg/mouse) or Roneparstat (SST) (1.2 mg/mouse) or PBS as control, 30 min before LPS injection (15 mg/kg, i.p.). SST was given once again (1.2 mg/mouse) 16 hours after LPS administration. Survival of mice was monitored every 12 h for 8 days (FIG. 10).
# EMT-6 luciferase cells = assay: EMT-6 breast carcinoma tumor growth in Balb/c mice; format: in vivo; settings: 360 μg/mouse, 2 times/week; vs PBS
# Description: In subsequent studies, the effect of mAb A54 on breast carcinoma tumor growth was investigated. Balb/c mice (n=3) were inoculated in the mammary fad pad with EMT-6 luciferase cells (0.5×10^6), and mice were treated with A54 mAb (360 μg/mouse, 2 times/week) or PBS as control. Tumor growth was evaluated by IVIS imaging (FIGS. 9A and 9B) and quantification of luciferase signals is shown graphically (FIG. 9C). At the end of the experiment, tumors were resected and weighted (FIG. 9D).
# [2] = target: T1, recombinant human heparanase (Homo sapiens, UniProt Q9Y251); assay: heparanase activity assay: release of HS degradation fragments from 35S-labeled ECM; format: biochemical
# T1 construct: purified recombinant active heparanase (200 ng) was pre incubated with the various hybridoma supernatants; recombinant active heparanase (200 ng) was preincubated with control mouse IgG or purified mAb A54
# T1 sequence (Q9Y251 158-543 limits assumed): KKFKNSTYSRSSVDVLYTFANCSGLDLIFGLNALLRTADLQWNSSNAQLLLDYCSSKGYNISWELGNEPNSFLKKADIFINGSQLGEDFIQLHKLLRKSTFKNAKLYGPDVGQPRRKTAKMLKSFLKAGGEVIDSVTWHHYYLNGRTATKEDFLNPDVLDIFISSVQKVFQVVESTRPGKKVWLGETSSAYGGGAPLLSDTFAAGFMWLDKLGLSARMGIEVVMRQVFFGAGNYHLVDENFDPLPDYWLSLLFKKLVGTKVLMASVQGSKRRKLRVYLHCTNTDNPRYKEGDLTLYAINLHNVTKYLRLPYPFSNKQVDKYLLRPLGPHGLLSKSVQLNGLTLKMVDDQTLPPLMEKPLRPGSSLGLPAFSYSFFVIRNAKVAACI
# T1 sequence (Q9Y251 36-109 limits assumed): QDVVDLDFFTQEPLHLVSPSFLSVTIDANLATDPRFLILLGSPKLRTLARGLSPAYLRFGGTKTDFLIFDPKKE
# Description: Cell lysates, heparanase activity and protein blotting. Preparation of cell lysates, protein blotting, and measurement of heparanase enzymatic activity were carried out as described (Arvatz et al. Faseb J 2011; 24(12):4969-76). For inhibition studies, highly purified recombinant heparanase (200 ng) was pre-incubated with the indicated antibody ([…]) for 30 min on ice under neutral pH conditions (pH 7.2) before being added to ^35S-labelled ECM, used as a naturally produced substrate for heparanase (Gingis-Velitski et al. 2007, ibid.).
# ECM degradation assay. […] More detail about the preparation of this substrate and its use for the heparanase assay can be found in: Current Protocols in Cell Biology (Vlodavsky 2001; pp. 10.4.1-10.4.14). Briefly, sulfate [^35S] labeled ECM coating the surface of 35 mm tissue culture dishes, is incubated (4 h, 37° C., pH 6.0, 1 ml final volume) with recombinant human heparanase (200 ng/ml) in the absence and presence of the A54 mAb. The reaction mixture contains: 50 mM NaCl, 1 mM DTT, 1 mM CaCl2), and 10 mM buffer Phosphate-Citrate, pH 6.0. To evaluate the occurrence of proteoglycan degradation, the incubation medium is collected and applied for gel filtration on Sepharose 6B columns (0.9×30 cm). Fractions (0.2 ml) are eluted with PBS and counted for radioactivity. […]
# In order to select the hybridoma clone that best inhibits heparanase enzymatic activity, supernatants of the various hybridomas, raised against the 65 kDa latent heparanase protein, were collected, pre-incubated with recombinant heparanase and examined for the capacity to inhibit the release of heparan sulfate (HS) degradation fragments from sulfate labeled ECM. […] The mixture was then applied onto ^35S-labeled ECM-coated dishes and heparanase activity was determined as described under “Materials and Methods” above.
# Next, the ability of purified mAb A54 to inhibit heparanase enzymatic activity was examined. […] The mixture was then applied onto dishes coated with ^35S-labeled ECM, and heparanase enzymatic activity was determined as described in ‘Methods’.
molecule,measurement,setting,value
"mAb A54: heparanase-neutralizing murine monoclonal antibody, IgG1-Kappa; VH SEQ ID NO: 7, VL SEQ ID NO: 8; binds HBD-II of heparanase (antibody, listed as Mus musculus, V domains shown) VH: QVQLQQSGAELAKPGASVRMSCKASGYTFTNYWMHWVKQRPGQGLEWIGYINPTTGYTEYNQKFKDKATLTADKSSSTAYMQLSSLTSEDSAVYYCARGGAGYDYDEDYAMDYWGQGTSVTVSS VL: DIVLTQSPASLAVSLGQRATISCRASESVEYFGTSYMNWYQQKPGQPPKLLIYLASILESGIPARFSGSGSGTDFTLNIHPVEEEDAATYYCQQSNEDPYTFGGGTKLEIK",attenuation of myeloma tumor growth,"[1]; 250 or 500 μg/mouse every other day from day 2, day 14, vs PBS",4 fold
same,dose dependence of tumor growth attenuation,[1]; 250 vs 500 μg/mouse every other day,higher dose of antibody was more effective
same,survival after LPS injection,LPS-induced sepsis,effectively protects mice from LPS-induced sepsis
same,"breast carcinoma tumor growth (IVIS signal, tumor weight)",EMT-6 luciferase cells,attenuates the growth of breast carcinoma
same,inhibition of the enzyme,"[2]; 0.1 μg/ml antibody, preincubated 1 h with active heparanase (200 ng), FIG. 3B",~75%
same,inhibition of heparanase enzymatic activity,"[2]; 1 μg/ml antibody, preincubated 1 h with active heparanase (200 ng), FIG. 3A",complete inhibition
same,decrease in the amount of released sulfate labeled HS degradation products,"[2]; hybridoma supernatant pre-incubated 2 h on ice with recombinant active heparanase (200 ng), FIG. 1",~80%
